In US20060263802A1:

B1: human monoclonal antibody CR57 (antibody, V domains shown)
VH: QVQLVQSGAEVKKPGSSVKVSCKASGGTFNRYTVNWVRQAPGQGLEWMGGIIPIFGTANYAQRFQGRLTITADESTSTAYMELSSLRSDDTAVYFCARENLDNSGTYYYFSGWFDPWGQGTLVTVSS
VL: QSALTQPRSVSGSPGQSVTISCTGTSSDIGGYNFVSWYQQHPGKAPKLMIYDATKRPSGVPDRFSGSKSGNTASLTISGLQAEDEADYYCCSYAGDYTPGVVFGGGTKLTVL
B2: human monoclonal antibody CRJA (antibody, V domains shown)
VH: EVQLLESGGGLVQPGGSLRLSCAASGFTFSNYAMSWVRQAPGKGLEWVSAISASGHSTYLADSVKGRFTISRDNSKNTLYLQMNSLRAEDTAVYYCAKDREVTMIVVLNGGFDYWGQGTRVTVSS
VL: EIVLTQSPATLSLSPGERATLACRASQTASRYLAWYQQKPGQAPRLLIYDTSNRATGIPARFSGSGSGTDFTLSISSLEPEDFAVYYCQQRFNWPWTFGQGTKVEFK

Key:
[1] = target: linear peptide … (rabies virus strain ERA); assay: PEPSCAN ELISA, linear peptide, antibody 10 µg/ml
[2] = target: linear peptide … (rabies virus strain ERA); assay: PEPSCAN ELISA, linear peptide, 10 µg/ml

Row | Binder | OD value [1] | OD [2] [OD]
1 | B1 | 364 | 
2 | B2 | 1030 | 96
